Read-outs that look alike come from different tables or passages of the source. One block for each substance: values may come before it.
Key:
[1] = target: CRF receptors on rat anterior pituitary cells (rat)
[2] = target: CRF receptors on rat anterior pituitary cells (rat); remark: listed apart in the source
[3] = target: CRF receptors on rat anterior pituitary cells (rat); remark: listed apart in the source

in vitro biopotency: inhibition of ACTH secretion (times the Standard) [1]: 3.12
Substance: (cyclo 28-31) D-Phe^12, Nle^21,38, Glu^28, Lys^31 !-r/hCRF(12-41) (peptide)

in vitro biopotency: inhibition of ACTH secretion (times the Standard) [2]: 4.91
Substance: (cyclo 28-32) D-Phe^12, Nle^21,38, Glu^28, D-Ala^31, Lys^32 !-r/hCRF(12-41) (peptide)

in vitro biopotency: inhibition of ACTH secretion (times the Standard) [3]: 3.38
Substance: (cyclo 29-32) D-Phe^12, Nle^21,38, Glu^29, Lys^32 -r/hCRF(12-41) (peptide)

— US5777073
